Assay results from publication PMC9306000.

Substrate: CC(C)=C[C@@H]1[C@@H](C(=O)SCCNC(=O)CCNC(=O)[C@H](O)C(C)(C)COP(=O)(O)OP(=O)(O)OC[C@H]2O[C@@H](n3cnc4c(N)ncnc43)[C@H](O)[C@@H]2OP(=O)(O)O)C1(C)C
Experiment: purified protein
Conditions: 1 mM (S)-pyrethrolone, 50 mM Tris-HCl pH 7.5, 25 °C, 10 min

B1: TcGLIP (Tanacetum cinerariifolium) (protein)
chain: SQQAAALFIFGDSVFDPGNNNHINTHVNFKANFWPYGQSYFSSPTGRFSDGRIIPDFIAEYASLPIIPAYLEPNNDFTHGANFASAGAGALIASHAGLAVGLQTQLRYFGDLVDHYRQNLGDIKSRQLLSDAVYLFSCGGNDYQSPYYPYTQEQYVDIVIGNMTNVIKGIYEKGGRKFGVVNVPLIGCWPGMRAKQPGNTCNTEVDELTRLHNQAFAKRLEQLEKQLEGFVYAKFDLSTAILNRMKNPSKYGFKEGESACCGSGPFGGNYDCGRIKEFGLCDNATEYFFFDPFHPNELASRQFAEMFWDGDSMVTQPYNLKALFEGKPSTKYLPNDEL
Q: What does the source list for B1?
A: Km: 520 ± 95 µM; Vmax: 0.14 µmol/min/mg; Vmax/Km: 269 µL/min/mg
